We go through 36 sequences from the supplement of paper PMC12764529.

The nature of data set [1]: folding stability dG unfold from chymotrypsin proteolysis; higher = more stable. In a few lines: (§1)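 Sequencing followed digestion of designed mini-proteins with trypsin and chymotrypsin, each at 11 concentrations in threefold dilutions together with a no-protease condition. The mini-proteins were under 80 residues, had no cysteine, sat in a PA-tagged cDNA display construct, and were kept only if AlphaFold2 dimer inter-PAE was above 15. From the counts, Bayesian fitting gave K50, and unfolding free energy was derived against a sequence-predicted unfolded-state K50 and a shared folded-state K50, per protease or combined.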

The nature of data set [2]: folding stability dG unfold from trypsin proteolysis; higher = more stable. The essentials: as §1
The nature of data set [3]: folding stability dG unfold (combined trypsin and chymotrypsin); higher = more stable. The essentials:
as §1

± gives the half width of the 95% confidence interval.

In the case of “SAGKKLFIKVKIRVKKKVKLKDGKTVEKEKELTLLIEAESEEEALEAAKKLAEELGLEIEKVEIFKAPSAGG [r19_176_TrROS_Hall]”, the “folding stability dG unfold” value came to 3.75 ± 0.16 kcal/mol in data set [1], 2.41 ± 0.15 kcal/mol in data set [2] and 3.09 ± 0.27 kcal/mol in data set [3].
For “SAGKKLIIRVEVYRREKNENGEIKKVTETLEVPPGATIEELVKALAPPGYTIRIEIIENGKIIETIEIKSAG [r5_278_TrROS_Hall]”, in that order: 3.59 ± 0.086 kcal/mol, 2.14 ± 0.16 kcal/mol and 3.23 ± 0.31 kcal/mol.
For “SAGKKQEVTIMIPIRGPAQAREQVEEFANDFPIKPTRVHPNPNKNHYWVMVTMKVPGAKIKIMIWIPPSAGG [r19_262_TrROS]” the same measures were 4.19 ± 0.057 kcal/mol, 2.94 ± 0.11 kcal/mol and 3.67 ± 0.13 kcal/mol.
Take “SAGKKSTLTIDLPGSTVTLTYDPATGKVRITVNLGVAVAGIDPETGKPGIVTGSVTLEADIDVPPGAPISAG [r5_195_TrMRF]”: the “folding stability dG unfold” value came to 2.68 ± 0.057 kcal/mol in data set [1], 2.61 ± 0.16 kcal/mol in data set [2] and 2.65 ± 0.15 kcal/mol in data set [3].
For the sequence “SAGKKTIIIKIPPNMTVEELKKALKNLKPNEKVTITVNGKKYTITVKDGKIKITFPENVKNMILIIEVKSAG [r5_373_TrROS_Hall]”, the “folding stability dG unfold” value amounted to 2.54 ± 0.057 kcal/mol in data set [1], 2.08 ± 0.13 kcal/mol in data set [2] and 2.4 ± 0.36 kcal/mol in data set [3].
For “SAGKKTVTIVIRLKEPGERLSAEELAALLRELGLPPGAKVTVERRPDGYLVVTVEVDGKTVTIVIELEDSAG [r5_144_TrROS_Hall]”, in that order: 2.516 ± 0.019 kcal/mol, 2.04 ± 0.04 kcal/mol and 2.34 ± 0.056 kcal/mol.
For “SAGKKVKKITLTIKNKETGEYYKAEVIENENGEKYIKIINKKTGKIYIFKIKDGKIEPVKEISLKDIKPSAG [r5_619_TrROS_Hall]”, in that order: 3.11 ± 0.053 kcal/mol, 1.85 ± 0.067 kcal/mol and 2.83 ± 0.2 kcal/mol.
In the case of “SAGKKVRIWIVFDGDPEQAKYLAEEIAKELRQKDGHKNVDIEVIPPGQDMHQMMEWAEENNVDIVIMVSAGG [r19_89_TrROS]”, the “folding stability dG unfold” value worked out at 3.85 ± 0.19 kcal/mol in data set [1], 2.68 ± 0.15 kcal/mol in data set [2] and 3.59 ± 0.13 kcal/mol in data set [3].
For “SAGKKVTIKAIVRVKLANGEWFEAKVKEVTFDEETGEVTITVEVDGKTYTITVPLEDIELVDDAEEALKSAG [r5_15_TrROS_Hall]” the same measures were 3.72 ± 0.064 kcal/mol, 2.19 ± 0.034 kcal/mol and 3.25 ± 0.063 kcal/mol.
For “SAGKMLVVRIEVEVEVEVTVEKDGKKETFKEKKKLTLTLVFESEEEAEAAKKELEKLFPDLKIEVVPLPSAG [r5_453_TrROS_Hall]” the same measures were 4.56 ± 0.16 kcal/mol, 4.43 ± 0.47 kcal/mol and 4.54 ± 0.2 kcal/mol.
For “SAGKMYLIVIKVDGKEYVIVIPEEEMSEEEIRKLISEELGISEEEVEIVEIVPVEPGESVEEALKKALESAG [r5_900_TrROS_Hall]” the same measures were 4.23 ± 0.074 kcal/mol, 2.77 ± 0.14 kcal/mol and 3.94 ± 0.15 kcal/mol.
For the sequence “SAGKNEVLKVDIEYDPETGIIRLKTTYPNGLKEEKLIFKIPGTGKWYTAWNSEYEEGKEYQDFGILPESAGG [r19_394_TrMRF]”, the figures for the “folding stability dG unfold” value in data set [1], in data set [2] and in data set [3] were 2.35 ± 0.05 kcal/mol, 1.98 ± 0.15 kcal/mol and 2.02 ± 0.12 kcal/mol, respectively.
For the sequence “SAGKPIDLGEVEVEISPVSYDPETGKLTYQARLVTKDGKPIYTASVTYDPKTGKFSISVTPIGYDPSAFSAG [r5_200_TrMRF]”, the entries for the “folding stability dG unfold” value in data set [1], in data set [2] and in data set [3] were 1.99 ± 0.12 kcal/mol, 2.26 ± 0.057 kcal/mol and 2.2 ± 0.14 kcal/mol, respectively.
For “SAGKPKIIEEKTITVPPGATLTIEFPPEVKRIEIINLDTGKTETIEIKPGEKLTFTFPPGSTVRVRVLSAGG [r19_118_TrROS_Hall]” the same measures were 4.06 ± 0.046 kcal/mol, 2.38 ± 0.029 kcal/mol and 3.65 ± 0.09 kcal/mol.
For “SAGKPKVIFIEGMTKEQLRAAIDEAKKKLKPGDIIVVRSKEAADALKELLPDLTVYLVDEETKEVKKLPSAG [r5_391_TrROS_Hall]” the same measures were 2.1 ± 0.067 kcal/mol, 1.91 ± 0.14 kcal/mol and 2.08 ± 0.14 kcal/mol.
For “SAGKPLTPDEAKELAEELVDAFAEEFARRHGMPPDDMKVIEVEETPDGYIQVTFRMPNMPMKFEIPVKDSAG [r5_565_TrROS]”, in that order: 0.277 ± 0.11 kcal/mol, 0.435 ± 0.057 kcal/mol and 0.366 ± 0.1 kcal/mol.
Consider “SAGKPPPVKIEVNYRRTPDNSYRAEVQIRLPDGKPLFEVTYPFDNPDDPEARERFVRKARNLAKELANSAGG [r19_13_TrROS]”, for which the “folding stability dG unfold” value in data set [1] was found to be 1.8 ± 0.19 kcal/mol; in data set [2], 1.9 ± 0.14 kcal/mol; in data set [3], 2.14 ± 0.5 kcal/mol.
As for “SAGKSIKIPYIIRFPSPNGEPHLMRIKEVTINPKPGMVKIKFQMPGKKQTHTVPPNNIEILPDPEEILKSAG [r5_15_TrROS]”, the “folding stability dG unfold” value is -0.0282 ± 0.33 kcal/mol in data set [1], 0.116 ± 0.22 kcal/mol in data set [2] and -0.0216 ± 0.29 kcal/mol in data set [3].
For “SAGKTATFTFTLPLPENDLILRVTVRVEEVEDIGEKKVYRVNVEIDLIDKDGVPHRFSFSFLVPAEELFSAG [r14_916_TrMRF]” the same measures were 5.14 ± 0.11 kcal/mol, 3.39 ± 0.15 kcal/mol and 4.83 ± 0.16 kcal/mol.
In the case of “SAGKTIVIKAKTAEEAINALLKELKKKGEKVKITVTVYDKNGKEVYRVTIEIDPKEKGKIKIKVEKVPSAGG [r19_85_TrROS_Hall]”, the results for the “folding stability dG unfold” value in data set [1], in data set [2] and in data set [3] were 3.65 ± 0.2 kcal/mol, 2.19 ± 0.22 kcal/mol and 3.33 ± 0.44 kcal/mol, respectively.
For “SAGKVEIKEVSVDPNTDEVKVTFKNPNVPPGTKIVVYPKDGKPIEFETEPNKEVTLTLPKDVEKIEFEGSAG [r14_671_TrMRF]” the same measures were 0.381 ± 0.14 kcal/mol, -0.298 ± 0.13 kcal/mol and 0.0919 ± 0.15 kcal/mol.
As for “SAGKVKATYDPKTGTLTITFNVKKNEKINVKANIKIPEYNATVEKVETNGAKKDNEPVTVKIKLKNLKKSAG [r5_737_TrMRF]”, the results for the “folding stability dG unfold” value in data set [1], in data set [2] and in data set [3] were 2.75 ± 0.12 kcal/mol, 1.06 ± 0.076 kcal/mol and 1.94 ± 0.54 kcal/mol, respectively.
For “SAGKVKIEVEEVPPNVKKVKVESLEELLEAAKKLPPGAVVEVELEDGSKVTVVLNKDGKVVEVKKEPVPSAG [r5_506_TrROS_Hall]”, in that order: 0.9 ± 0.16 kcal/mol, 2.61 ± 0.35 kcal/mol and 1.58 ± 0.27 kcal/mol.
For “SAGKVKIVKIDKGKNKITIEFYDDGKKIATIPFPPNFPNTKVIAEVNEDGSIKVTFISGDKPIEITIDASAG [r5_533_TrMRF]” the same measures were 2.64 ± 0.1 kcal/mol, 2.57 ± 0.16 kcal/mol and 2.59 ± 0.12 kcal/mol.
As for “SAGKVKVEKLEDGTVIVEAEIKDPETDEYIKIFDLVTFNPETGYALVPRLVIKGDKPFTFPVLVKLPKSAGG [r19_289_TrMRF]”, the figures for the “folding stability dG unfold” value in data set [1], in data set [2] and in data set [3] were 0.931 ± 0.11 kcal/mol, 0.0636 ± 0.067 kcal/mol and 0.671 ± 0.12 kcal/mol, respectively.
For “SAGKVTVERDPSTNVVNVTVEVERERDVPPGAPVTETIIIPARVKFDEDGKLVEPISLDDILAAIRAAGSAG [r5_239_TrMRF]”, the “folding stability dG unfold” value in data set [1] came to 0.684 ± 0.095 kcal/mol; in data set [2], 0.221 ± 0.12 kcal/mol; in data set [3] it was 0.629 ± 0.21 kcal/mol.
For the sequence “SAGKYIMHPIKAGAEIKITIPPEGYRIKIGMYYPNGGKMEEHEVPIKPGKTLEFKIPDPNFFVMIEPEPSAG [r5_797_TrROS]”, the “folding stability dG unfold” value in data set [1] is 1.57 ± 0.25 kcal/mol; in data set [2] it was 0.984 ± 0.1 kcal/mol; in data set [3], 1.3 ± 0.26 kcal/mol.
For “SAGLAAAIAAAGAIAEALGVTVRVEVFRDGELVGTFEIPAPVGDGEPVSLEVRLPDPEVTVRFELRIPGSAG [r14_728_TrMRF]” the same measures were 2.51 ± 0.037 kcal/mol, 2.26 ± 0.14 kcal/mol and 2.5 ± 0.11 kcal/mol.
Turning to “SAGLDEEAYRNGLTVYLTSRLPGPDVLRPQWFDVTPEGDGFTYNVALPDGVPVNLEVLSRKVLSPEELLSAG [r14_427_JUSTAS]”, the “folding stability dG unfold” value in data set [1] was 0.149 ± 0.32 kcal/mol; in data set [2], -0.489 ± 0.51 kcal/mol; in data set [3] it was 0.0205 ± 0.19 kcal/mol.
For “SAGLEVVKKLAEELGFPVEILRVEYDPETGELTFEAVARPKDGKTRRVRIRIRVPKESDEVEIELEYFDSAG [r5_929_TrMRF]”, in that order: 3.95 ± 0.082 kcal/mol, 4.67 ± 0.11 kcal/mol and 4.51 ± 0.1 kcal/mol.
“SAGLGLEKAKKLAEKIAETLKKELEKELGIPADQIKVEAKVEKLPDGSYKITVKINLKDIPIEKVFYVDSAG [r14_226_TrMRF]”: the “folding stability dG unfold” value in data set [1] came to 2.9 ± 0.069 kcal/mol; in data set [2] it was 3.5 ± 0.52 kcal/mol; in data set [3], 2.87 ± 0.31 kcal/mol.
With “SAGLKVEIFPMDGTEQTIPIPAEDADPLVDEFQDNGFKVDNVEVDPDGEVWIPIKFPNGRPWMIEIDWESAG [r5_645_TrROS]”, the “folding stability dG unfold” value in data set [1] was -0.0946 ± 0.31 kcal/mol; in data set [2], -0.0958 ± 0.093 kcal/mol; in data set [3] it was 0.0616 ± 0.29 kcal/mol.
Regarding “SAGLRVVAVARTPDGSLVVVYELPDRLVVLRYTPTAITSVAVFPVPPVPPPPAVPRYYDPVTGRWVDGSAGG [r19_254_TrMRF]”, the “folding stability dG unfold” value in data set [1] came out at 3.641 ± 0.026 kcal/mol; in data set [2] it was 1.71 ± 0.029 kcal/mol; in data set [3], 3.02 ± 0.061 kcal/mol.
As to “SAGMAVVKITLEYEDGRKEEFILFVESENPEEVLEEAEEALAELIEELDVPLKSATIEIYDIPPDEELSAGG [r19_335_TrMRF]”, the “folding stability dG unfold” value turned out to be 3.39 ± 0.09 kcal/mol in data set [1], 2.12 ± 0.11 kcal/mol in data set [2] and 3 ± 0.1 kcal/mol in data set [3].
For “SAGMEEEEVVLKIRVKDPETGEEKTFEVKLKDIEKVEVDEDGNIRIYLKEDGKEITIPADKITEVELLSAGG [r19_416_TrROS_Hall]” the same measures were 3.86 ± 0.059 kcal/mol, 3.15 ± 0.11 kcal/mol and 3.71 ± 0.089 kcal/mol.
In the case of “SAGMEELAEELAKELEGEGLKVEVEVDPETGVVTVTAYSPESVTVVTITQDPNNDAFTVNTTTYPPLLSAGG [r19_2_JUSTAS]”, the entries for the “folding stability dG unfold” value in data set [1], in data set [2] and in data set [3] were 2.95 ± 0.061 kcal/mol, 3.07 ± 0.083 kcal/mol and 3.02 ± 0.059 kcal/mol, respectively.
